We go through one molecule from article PMC3789764.

For the series, the target named is Ku70 (in Ku70/Ku80ΔC);Ku80ΔC (in Ku70/Ku80ΔC) (human;human, UniProt P12956;P13010 1-609;1-590, |). Kind of series: EMSA. The following applies: protein: recombinant;recombinant; tags: N-terminal Strep tag II;; copies: 1;1. For orientation: A gel shift assay detects complexes by their altered migration in electrophoresis.
Ku70 (in Ku70/Ku80ΔC);Ku80ΔC (in Ku70/Ku80ΔC), sequence (P12956 whole entry, stated change not applied, chain 1 of 2): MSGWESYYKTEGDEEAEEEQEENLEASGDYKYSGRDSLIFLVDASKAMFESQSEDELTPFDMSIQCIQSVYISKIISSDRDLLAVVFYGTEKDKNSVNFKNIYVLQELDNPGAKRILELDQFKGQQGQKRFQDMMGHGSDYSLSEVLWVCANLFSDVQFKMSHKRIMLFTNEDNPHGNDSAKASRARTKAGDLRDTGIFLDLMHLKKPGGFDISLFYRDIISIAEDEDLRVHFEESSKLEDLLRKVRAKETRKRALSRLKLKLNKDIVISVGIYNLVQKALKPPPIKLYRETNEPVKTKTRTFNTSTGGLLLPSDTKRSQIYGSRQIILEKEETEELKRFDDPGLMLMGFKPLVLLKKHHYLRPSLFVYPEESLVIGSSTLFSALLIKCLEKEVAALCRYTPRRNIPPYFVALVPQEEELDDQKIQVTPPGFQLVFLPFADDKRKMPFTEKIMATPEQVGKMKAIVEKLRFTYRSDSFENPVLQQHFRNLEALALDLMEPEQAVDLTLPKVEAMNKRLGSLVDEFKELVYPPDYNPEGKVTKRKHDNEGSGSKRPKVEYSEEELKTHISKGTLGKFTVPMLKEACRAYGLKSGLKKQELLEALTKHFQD
Ku70 (in Ku70/Ku80ΔC);Ku80ΔC (in Ku70/Ku80ΔC), sequence (P13010 1-590, stated change not applied, chain 2 of 2): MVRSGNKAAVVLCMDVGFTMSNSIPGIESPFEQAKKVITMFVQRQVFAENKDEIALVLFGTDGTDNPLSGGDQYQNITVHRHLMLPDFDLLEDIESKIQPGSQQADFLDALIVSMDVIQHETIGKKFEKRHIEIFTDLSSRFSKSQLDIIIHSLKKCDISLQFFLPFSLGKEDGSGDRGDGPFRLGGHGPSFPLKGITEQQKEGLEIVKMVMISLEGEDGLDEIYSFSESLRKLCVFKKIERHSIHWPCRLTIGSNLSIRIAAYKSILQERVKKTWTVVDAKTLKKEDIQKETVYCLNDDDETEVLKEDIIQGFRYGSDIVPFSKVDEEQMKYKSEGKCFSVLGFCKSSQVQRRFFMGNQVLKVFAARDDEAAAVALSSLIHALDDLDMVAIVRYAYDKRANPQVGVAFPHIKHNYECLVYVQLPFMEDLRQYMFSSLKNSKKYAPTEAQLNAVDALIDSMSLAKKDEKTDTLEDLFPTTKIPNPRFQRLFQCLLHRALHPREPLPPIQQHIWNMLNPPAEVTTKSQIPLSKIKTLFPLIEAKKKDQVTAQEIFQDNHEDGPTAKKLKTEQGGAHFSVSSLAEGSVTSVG

B1: Cy3 19-bp duplex (dsDNA)
DNA 1: GAAAGCTATGGGCGCGGTT
DNA 2: AACCGCGCCCATAGCTTTC
With B1, the binding result was “binds”.
